The target of data set [1] is T1, LG-268-NRE (Protein LG fused to Zif268-NRE six-finger zinc finger protein) (Artificial Sequence). Briefly: EMSA; 0.03 mM protein, Tris-glycine, room temp 15-60 min, 4-20% acrylamide gel, SYBR Gold; detector complex visible, further shifted by bovine IgG. As to conditions: tags: C-terminal His tag (pET20b(+)); N-terminal Protein LG fusion. How it is done: Stock solutions of LG-268-NRE (0.1 mM), the DNA detection moiety (500 ng/μl for a 50-mer and 1 μg/μl for an 80- or 100-mers), the target analytes (Bovine IgG antibodies (Equitech Bio, B60-0010; Final concentration of 1 mg/ml), and loading buffer (Jule Tris-Glycine running buffer; Jule Inc.; Catalog Number: TGNRB10X) were combined at the same time and mixed in a microfuge tube in a final reaction volume of 75 μl. Final concentrations were as follows: 0.03 mM for LG-268-NRE, 100 ng/75 μl for the 50-mer, and 10 μg/75 μl for the 80- or 100-mers. The combined mixture was then allowed to sit for 15-60 minutes at room temperature (approximately 20-22° C.). Appropriate volumes of the controls and the mixed solution were then loaded into wells of acrylamide (50 μl) or agarose gels (75 μl) and run as described below. The agarose gels and the staining buffer are made with Jule Tris-Glycine running buffer (Jule Inc.; Catalog Number: TGNRB10X). The binding reactions are also performed with a range of protein concentrations and/or in the presence of salt, e.g., 50-100 mM KCl or NaCl. Molecular weight standards were: Bioline Hyperladder 1: BIO-33053; Hyperladder 2: BIO-33054; and Hyperladder 3: BIO-33055.
(In EMSA bound probe runs differently from free probe, usually more slowly.)

Data set [2] concerns the target T1, LG-268-NRE (Protein LG fused to …). Description: EMSA; 0.03 mM protein, Tris-glycine, room temp 15-60 min, SYBR Gold; detector complex visible, further shifted by bovine IgG. As to conditions: tags: C-terminal His tag (pET20b(+)); N-terminal Protein LG fusion.

B1: 80-mer DNA detection moiety (dsDNA)
DNA 1: TTTTGGGGTTGATAGAAAAGATAGAGGGTATAGTGAGTCGTATTAATTTCAGAATTCATTTCAAGGGTTCAGCGTGGGCG
DNA 2: CGCCCACGCTGAACCCTTGAAATGAATTCTGAAATTAATACGACTCACTATACCCTCTATCTTTTCTATCAACCCCAAAA
With B1, the binding result in data set [1] was “binds”.

B2: 100-mer DNA detection moiety (dsDNA)
DNA 1: CCCACTTCATTGTGCCAAAGTTTTGGGGTTGATAGAAAAGATAGAGGGTATAGTGAGTCGTATTAATTTCAGAATTCATTTCAAGGGTTCAGCGTGGGCG
DNA 2: CGCCCACGCTGAACCCTTGAAATGAATTCTGAAATTAATACGACTCACTATACCCTCTATCTTTTCTATCAACCCCAAAACTTTGGCACAATGAAGTGGG
B2: the binding result in data set [2] was “binds”.

These data come from patent US20110294135, “COMPOSITIONS AND METHODS FOR ANALYTE DETECTION AND QUANTITATION” (BioDesic, LLC, published 2011).
